Experimental data published in patent publication US20210332339, “NOVEL NUCLEASE DOMAIN AND USE THEREOF” (HIROSHIMA UNIVERSITY, published 2021).

Key:
[1] = target: ZFA36-ND1 (Artificial (ND1 from Bacillus sp. …)); test: cell_activity; Cel-I assay CHO-K1, stated for the sites overall; settings: tags: TGAAARA linker; residues from the E. coli expression version (His/NLS); chain copies: 2 inferred
[2] = target: ZFL1-ND1-DDD (Artificial); test: cell_activity; SSA, ZFL1-6bp-ZFA36, paired with ND1-RRR; about 80% with FokI-RRR; alone almost inactive; settings: R493D/N502D
ZFL1-ND1-DDD (Artificial), sequence (chain, as listed by the source): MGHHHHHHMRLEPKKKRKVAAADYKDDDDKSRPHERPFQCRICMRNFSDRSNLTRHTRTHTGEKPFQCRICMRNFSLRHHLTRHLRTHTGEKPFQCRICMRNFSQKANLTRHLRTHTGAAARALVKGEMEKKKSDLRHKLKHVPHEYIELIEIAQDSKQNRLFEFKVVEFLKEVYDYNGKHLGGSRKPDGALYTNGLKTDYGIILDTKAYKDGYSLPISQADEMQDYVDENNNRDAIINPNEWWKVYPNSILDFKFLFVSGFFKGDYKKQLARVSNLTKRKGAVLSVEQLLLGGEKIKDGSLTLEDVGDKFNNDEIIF
Protocol: (§1) Genes to Cells 15: 875-885). To a 96-well multiwell plate (Iwaki) treated with polylysine coat, 25 μL of serum-free D-MEM culture solution was added, and 6 μL of plasmid solution was mixed. To this, 25.7 μL of a solution containing 0.7 μL of Lipofectamine LTX (Life Technologies) per 25 μL of serum-free D-MEM culture solution was added, and the mixture was allowed to stand at room temperature for 30 minutes. During this period, HEK293T cells were dissociated from a 100 mm tissue culture dish (Iwaki) by trypsin treatment, centrifuged at 1000 rpm for 3 minutes, the supernatant was removed, and the cells were suspended again in 5 mL of the culture solution. A 10 μL cell suspension was dispensed, and the number of cells was counted. […]
(§2) Furthermore, in order to functionally convert the amino acids of the novel nuclease domains corresponding to the amino acids (D483, R487, and N496) involved in the heterodimerization of FokI-ND to the DDD-type, each pSTL-hPGRN_ZFL1-ND was used as a template and a primer pair was used to perform PCR by PrimeSTAR Max. […] Note that the amount of each ZFN plasmid in 7.2 μL of the plasmid solution used in the SSA reporter assay was changed to 120 ng for the target half-site L and 120 ng for the target half-site R. In addition, nuclease activity was measured by the Cel-I assay in the same manner as described in Example 3.

[3] = target: ZFA36-ND1-RRR (Artificial); test: cell_activity; SSA, ZFL1-6bp-ZFA36, paired with ND1-DDD; about 60% with FokI-DDD; alone almost inactive; settings: D489R/N543R
ZFA36-ND1-RRR (Artificial), sequence (chain, as listed by the source): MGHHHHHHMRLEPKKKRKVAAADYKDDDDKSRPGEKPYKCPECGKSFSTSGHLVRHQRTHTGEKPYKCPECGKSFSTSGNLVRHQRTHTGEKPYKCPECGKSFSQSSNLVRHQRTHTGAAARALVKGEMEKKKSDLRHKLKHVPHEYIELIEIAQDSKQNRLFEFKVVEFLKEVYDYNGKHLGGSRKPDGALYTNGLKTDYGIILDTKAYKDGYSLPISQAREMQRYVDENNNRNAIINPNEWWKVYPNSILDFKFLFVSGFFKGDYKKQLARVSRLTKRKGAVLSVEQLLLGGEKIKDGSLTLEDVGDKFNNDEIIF
Protocol: as §1, §2

B1: ZFA36-ZFA36 CHO-K1 3rd site (dsDNA)
DNA 1: ACCATCTTCCTTGATGAAGATGCC
DNA 2: GGCATCTTCATCAAGGAAGATGGT
binding signal [1]: ~1.5 fold of FokI-ND

B2: ZFL1 half-site (dsDNA)
DNA 1: GAAGGTGAC
DNA 2: GTCACCTTC
binding signal [2]: ~1.6 fold

B3: ZFA36 half-site (dsDNA)
DNA 1: GAAGATGGT
DNA 2: ACCATCTTC
binding signal [3]: ~1.6 fold
